Reference: patent US20230020362A1, “INFECTIOUS DISEASE VACCINES” (priority 2015, published 2023)

Legend:
Experiment in all cases: ProImmune REVEAL binding assay
A*02:01 = A*02:01 (Homo sapiens, UniProt P04439, D140Y/D185E/D98H/E176V/E277Q/G131W/G231S/I119V/I121R/I166T/I218V/L300P/L318F/N151K/N90K/P208A/P217A/Q86G/Q94H/R138H/R169H/T345S)
B*27:05 = B*27:05 (Homo sapiens, UniProt P01889, D138H/D201E/E176V/E204Q/G107R/H137Y/K202T/N104T/N87E/Q56L/Q94K/R106L/R155S/R180L/S101D/S121N/S48T/Y140D/Y33H/Y91C)
A*11:01 = A*11:01 (Homo sapiens, UniProt P04439, A114D/D185E/E176A/F33Y/L180Q/S129P/T187R)
H-2Kb = target: T1, H-2Kb (Mus musculus, UniProt P01901)
T1 sequence (P01901 22-295 limits assumed): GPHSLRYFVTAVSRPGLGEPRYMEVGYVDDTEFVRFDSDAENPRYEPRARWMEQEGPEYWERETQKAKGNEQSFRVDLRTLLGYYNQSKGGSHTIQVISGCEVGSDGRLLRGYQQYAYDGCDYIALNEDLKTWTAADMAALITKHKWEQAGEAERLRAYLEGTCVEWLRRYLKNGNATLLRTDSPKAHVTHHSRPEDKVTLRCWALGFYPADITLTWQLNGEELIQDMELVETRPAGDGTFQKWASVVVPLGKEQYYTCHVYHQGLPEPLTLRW
T1 sequence (P01887 21-119 partner): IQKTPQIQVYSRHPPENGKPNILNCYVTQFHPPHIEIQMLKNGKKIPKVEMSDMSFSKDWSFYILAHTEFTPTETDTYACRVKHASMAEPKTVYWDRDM

A*24:02 = A*24:02 (Homo sapiens, UniProt P04439, D101N/D140Y/D185E/E176V/E190D/F33S/G103R/G107R/I119L/I121M/I306V/K335N/L105A/L180Q/L300P/N151K/N90K/Q86E/Q94H/R106L/R138H/R89G/T104I/T345S/V100E/W191G/Y123F)
A*03:01 = A*03:01 (Homo sapiens, UniProt P04439)
B*07:02 = B*07:02 (Homo sapiens, UniProt P01889)
A*01:01 = A*01:01 (Homo sapiens, UniProt P04439, A114D/A174V/A182V/D101N/D185E/E176A/E190D/L180R/Q94H/R68K/S129P/T187R/V100A/V91M/W191G)

Sequence: AISGDDCVV
- REVEAL® score at 0 h (A*02:01): 91.1

Sequence: AMTDTTPFG
- REVEAL® score at 0 h (A*02:01): 91.9

Sequence: ARGYISTRV
- REVEAL® score at 0 h (B*27:05): 125.3

Sequence: ATFTMRLLS
- REVEAL® score at 0 h (A*11:01): 58.5
- REVEAL® score at 0 h (H-2Kb): 55.6

Sequence: CHATFTMRL
- REVEAL® score at 0 h (H-2Kb): 60.3
- REVEAL® score at 0 h (A*24:02): 75.9

Sequence: CVYNMMGKR
- REVEAL® score at 0 h (A*11:01): 113.2
- REVEAL® score at 0 h (A*03:01): 81.6

Sequence: FKLTYQNKV
- REVEAL® score at 0 h (B*27:05): 53.7

Sequence: FKPGTSGSP
- REVEAL® score at 0 h (B*07:02): 50.4
- REVEAL® score at 0 h (H-2Kb): 45.7

Sequence: GEAAAIFMT
- REVEAL® score at 0 h (A*11:01): 50.3
- REVEAL® score at 0 h (A*02:01): 74.3
- REVEAL® score at 0 h (A*24:02): 58.9

Sequence: GLYGNGVVT
- REVEAL® score at 0 h (A*02:01): 87.7

Sequence: GQQRVFKEK
- REVEAL® score at 0 h (A*11:01): 85.5
- REVEAL® score at 0 h (A*02:01): 47.1
- REVEAL® score at 0 h (B*27:05): 95.4
- REVEAL® score at 0 h (A*03:01): 59.6

Sequence: GTYGLNTFT
- REVEAL® score at 0 h (A*11:01): 63.6

Sequence: HATFTMRLL
- REVEAL® score at 0 h (H-2Kb): 69.5

Sequence: HTMWHVTRG
- REVEAL® score at 0 h (A*11:01): 56.3

Sequence: HWTEAKMLL
- REVEAL® score at 0 h (A*24:02): 103.2

Sequence: IPERSWNSG
- REVEAL® score at 0 h (B*07:02): 45.2

Sequence: ISGDDCVVK
- REVEAL® score at 0 h (A*11:01): 88.7

Sequence: IVDLMCHAT
- REVEAL® score at 0 h (A*02:01): 62.7

Sequence: KLTYQNKVV
- REVEAL® score at 0 h (A*02:01): 92.3

Sequence: KQWFLDLPL
- REVEAL® Score (A*02:01): 86.0

Sequence: LAPTRVVAA
- REVEAL® score at 0 h (H-2Kb): 102.5

Sequence: LGCGRGGWS
- REVEAL® score at 0 h (A*24:02): 74.8

Sequence: LLCDIGESS
- REVEAL® score at 0 h (A*02:01): 93.9

Sequence: LMCHATFTM
- REVEAL® score at 0 h (A*02:01): 72.9
- REVEAL® score at 0 h (H-2Kb): 59.0
- REVEAL® score at 0 h (B*27:05): 98.2
- REVEAL® score at 0 h (A*24:02): 99.5

Sequence: LMRRGDLPV
- REVEAL® score at 0 h (B*07:02): 178.9
- REVEAL® score at 0 h (A*02:01): 82.3

Sequence: LMYFHRRDL
- REVEAL® score at 0 h (B*07:02): 119.6
- REVEAL® score at 0 h (A*02:01): 97.8
- REVEAL® score at 0 h (H-2Kb): 54.9

Sequence: LSRNSTHEM
- REVEAL® score at 0 h (B*07:02): 124.5
- REVEAL® score at 0 h (H-2Kb): 51.1

Sequence: MAMTDTTPF
- REVEAL® score at 0 h (B*07:02): 117.4
- REVEAL® score at 0 h (A*24:02): 51.3

Sequence: MCHATFTMR
- REVEAL® score at 0 h (A*11:01): 91.0
- REVEAL® score at 0 h (A*03:01): 86.8

Sequence: MGEAAAIFM
- REVEAL® score at 0 h (A*02:01): 50.6

Sequence: MWHVTRGAV
- REVEAL® score at 0 h (A*02:01): 62.7

Sequence: NMMGKREKK
- REVEAL® score at 0 h (A*11:01): 77.9

Sequence: PERVILAGP
- REVEAL® score at 0 h (B*07:02): 56.1

Sequence: PLSRNSTHE
- REVEAL® score at 0 h (B*07:02): 65.0

Sequence: QQRVFKEKV
- REVEAL® score at 0 h (H-2Kb): 63.4

Sequence: RQWFFDLPL
- REVEAL® Score (A*02:01): 80.5

Sequence: RRGDLPVWL
- REVEAL® score at 0 h (B*27:05): 144.8

Sequence: SRNSTHEMY
- REVEAL® score at 0 h (B*07:02): 52.0

Sequence: TLLCDIGES
- REVEAL® score at 0 h (A*02:01): 63.9

Sequence: TMWHVTRGA
- REVEAL® score at 0 h (A*02:01): 112.0

Sequence: TPFGQQRVF
- REVEAL® score at 0 h (B*07:02): 112.7

Sequence: TTDISEMGA
- REVEAL® score at 0 h (A*01:01): 68.4

Sequence: TVWFVPSIK
- REVEAL® score at 0 h (A*11:01): 92.2

Sequence: VGTYGLNTF
- REVEAL® score at 0 h (A*24:02): 96.0

Sequence: VVAAEMEEA
- REVEAL® score at 0 h (A*02:01): 92.2

Sequence: VYNMMGKRE
- REVEAL® score at 0 h (A*11:01): 62.5

Sequence: WTEAKMLLD
- REVEAL® score at 0 h (A*24:02): 94.7

Sequence: YFHRRDLRL
- REVEAL® score at 0 h (A*24:02): 87.5

Sequence: YGLNTFTNM
- REVEAL® score at 0 h (H-2Kb): 75.4

Sequence: YNMMGKREK
- REVEAL® score at 0 h (A*11:01): 80.9
